This test has as its target EGFR (ミズーリ州セントルイス、シグマ社) (UniProt P00533). Description: SPR (BIACORE X), fusion protein amine-coupled to the chip, 10-100 nM EGFR in flow.

B1: celB+Lama glama由来の抗EGFRのVHH抗体+Hisタグ融合タンパク質 (VHH, not shown: small tags and cut ends)
chain: QQVGTTADAHPRLTTYKCTSQNGCTRQNTSLVLDAATHFIHKKGTQTSCTNSNGLDTAICPDKQTCADNCVVDGITDYASYGVQTKNDTLTLQQYLQTGNATKSLSPRVYLLAEDGENYSMLKLLNQEFTFDVDASTLVCGMNGALYLSEMEASGGKSSLNQAGAKYGTGYCDAQCYTTPWINGEGNTESVGSCCQEMDIWEANARATGLTPHPCNTTGLYECSGSGCGDSGVCDKAGCGFNPYGLGAKDYYGYGLKVNTNETFTVVTQFLTNDNTTSGQLSEIRRLYIQNGQVIQNAAVTSGGKTVDSITKDFCSGEGSAFNRLGGLEEMGHALGRGMVLALSIWNDAGSFMQWLDGGSAGPCNATEGNPALIEKLYPDTHVKFSKIRWGDIGSTYRHQVQLVESGGGLVQAGDSLRLSCVDSGRDFSDYVMGWFRQAPGKEREFVAAISRNGITTRYADSVKGRFTISRDNDKNTVYLQMNSLKPEDTAVYYCATNSAGTYVSPRSRDYDGWGQGTQVTVSS
The term Kd denotes the concentration at which binding is half-saturated. A low value points to tighter binding. In the case of B1, the Kd came out at 14.7 nM.

For the origin of these results see patent JP2012157315A.
